We go through 29 molecules from patent US20210047402A1 (TENEOBIO, published 2021).

The chains are these.
T1: human CD22 (human, UniProt P20273 20-687, limits assumed)
T1 construct: also called SIGLEC-2; human CD22 protein
T1 sequence (looked up): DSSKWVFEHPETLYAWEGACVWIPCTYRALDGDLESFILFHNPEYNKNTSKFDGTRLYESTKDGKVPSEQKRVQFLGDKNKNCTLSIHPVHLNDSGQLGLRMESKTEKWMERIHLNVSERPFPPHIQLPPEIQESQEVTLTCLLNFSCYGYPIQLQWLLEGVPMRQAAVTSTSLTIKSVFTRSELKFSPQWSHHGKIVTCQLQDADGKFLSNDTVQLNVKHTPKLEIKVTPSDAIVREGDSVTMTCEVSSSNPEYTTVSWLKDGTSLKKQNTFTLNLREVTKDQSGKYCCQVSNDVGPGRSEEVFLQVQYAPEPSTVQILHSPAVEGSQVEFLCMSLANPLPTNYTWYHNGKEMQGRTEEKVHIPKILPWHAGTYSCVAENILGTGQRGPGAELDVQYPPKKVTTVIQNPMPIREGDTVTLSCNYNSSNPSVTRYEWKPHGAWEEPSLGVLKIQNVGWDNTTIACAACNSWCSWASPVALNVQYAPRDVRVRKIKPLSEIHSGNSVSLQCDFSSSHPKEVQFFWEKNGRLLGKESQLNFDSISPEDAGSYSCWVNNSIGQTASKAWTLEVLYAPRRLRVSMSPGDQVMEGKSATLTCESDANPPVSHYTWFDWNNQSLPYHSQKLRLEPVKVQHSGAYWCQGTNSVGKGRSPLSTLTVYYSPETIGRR

B1: anti-CD22 heavy chain-only antibody Clone ID 335206 (antibody, V domains shown)
VH: QLQLQESGPGLVKPSETLSLTCTVSGDSISSGDYYWGWIRQPPGKGLEWIGHIYYSGATYYNPSLKNRVTISVDTSKNQFSLKLSSVTAADTAVYYCTREDSSNWRSRGQGTLVTVSS
notes: Heavy chain-only antibody (UniAb), no light chain
B2: anti-CD22 heavy chain-only antibody Clone ID 335159 (antibody, V domains shown)
VH: QLQLQESGPGLVKPSETLSLTCTVSGGSISSSSYYWGWIRQPPGKGLEWIGHIYYSGVTYYNPSLKNRVTISVDTSKNQFSLKLSSVTAADTAAYYCTRDDSSNWRSRGQGTLVTVSS
notes: as for B1
B3: anti-CD22 heavy chain-only antibody Clone ID 335173 (antibody, V domains shown)
VH: QLQLQESGPGLVKPSETLSLTCTVSGGSITSSSYYWGWIRQPPGKGLEWIGSIYYSGSTYYNPSLKSRVTISVDTSKNQFSLKLSSVTAADTAVYYCTRDDSSNWRSRGQGTLVTVSS
notes: as for B1
B4: anti-CD22 heavy chain-only antibody Clone ID 335176 (antibody, V domains shown)
VH: QLQLQESGPGLVKPSETLSLTCTVSGDSISSGDYYWGWIRQPPGKGLEWIGHIYYSGATYYNPSLKNRVTISVDTSKNQFSLKLSSVTAADTAVYYCTRDDSSNWRSRGQGTLVTVSS
notes: as for B1
B5: anti-CD22 heavy chain-only antibody Clone ID 335185 (antibody, V domains shown)
VH: QLQLQESGPGLVKPSETLSLTCTVSGDSISSGDYYWGWIRQPPGKGLEWIGHIYYSGATYYNPSLKNRVTISVDTSRNQFSLNLSSVTAADTAVYYCTREDSSNWRSRGQGTLVTVSS
notes: as for B1
B6: anti-CD22 heavy chain-only antibody Clone ID 335170 (antibody, V domains shown)
VH: QLQLQESGPGLVKPSETLSLTCTVSGDSISSGDYYWGWIRQPPGKGLEWIGHIYYSGATYYNPSLKNRVTISVDTSRNQFSLKLSSVTAADTAVYYCTRDDSSNWRSRGQGTLVTVSS
notes: as for B1
B7: anti-CD22 heavy chain-only antibody Clone ID 335158 (antibody, V domains shown)
VH: QLQLQESGPGLVKPSETLSLTCTVSGGSISSGDYYWGWIRQPPGKGLEWIGHIYYSGATYYNPSLKNRVTISVDTSRNQFSLKLSSVTAADTAVYYCTRDDSSNWRSRGQGTLVTVSS
notes: as for B1
B8: anti-CD22 heavy chain-only antibody Clone ID 335186 (antibody, V domains shown)
VH: QLQLQESGPGLVKPSETLSLTCTVSGGSISSSSYYWGWIRQPPGKGLEWIGSIYYSGSTYYNPSLKSRVTISVDTSKNQFSLKLSSVTAADTAVYYCTRDDSSNWRSRGQGTLVTVSS
notes: as for B1
B9: anti-CD22 heavy chain-only antibody Clone ID 335150 (antibody, V domains shown)
VH: QLQLQESGPGLVKPSETLSLTCTVSGDSISSGDYYWGWIRQSPEKGLEWIGHIYYSGVTYYNPSLKNRVTISVDTSKNQFSLKLSSVTAADTAVYYCKRDDSSNWRSRGQGTLVTVSS
notes: as for B1
B10: anti-CD22 heavy chain-only antibody Clone ID 335151 (antibody, V domains shown)
VH: QLQLQESGPGLVKPSETLSLTCTVSGDSISSGDYYWGWIRQPPGKGLEWIGHIYYSGATYYNPSLKNRVTISVDTSRNQFSLNLSSVTAADTAVYYCTRDDSSNWRSRGQGTLVTVSS
notes: as for B1
B11: anti-CD22 heavy chain-only antibody Clone ID 335188 (antibody, V domains shown)
VH: QLQLQESGPGLVKPSETLSLTCTVSGGSISSSSYYWGWIRQPPGKGLEWIGHIYYSGVTYYNPSLKNRVTISVDTSKNQFSLKLSSVTAADTAVYYCTRDDSSNWRSRGQGTLVTVSS
notes: as for B1
B12: anti-CD22 heavy chain-only antibody Clone ID 335208 (antibody, V domains shown)
VH: QLQLQESGPGLVKPSETLSLTCTVSGGSISSSSYYWGWIRQPPGKGLEWIGSIYYSGATYYNPSLKNRVTISVDTSRNQFSLNLSSVTAADTAVYYCTREDSSNWRSRGQGTLVTVSS
notes: as for B1
B13: anti-CD22 heavy chain-only antibody Clone ID 335203 (antibody, V domains shown)
VH: QLQLQESGPGLVKPSETLSLTCTVSGDSISSGDYYWGWIRQPPGKGLEWIGHIYYSGVTYYNPSLKNRVTISVDTSKNQFSLKLSSVTAADTAVYYCTREDSSNWRSRGQGTLVTVSS
notes: as for B1
B14: anti-CD22 heavy chain-only antibody Clone ID 335181 (antibody, V domains shown)
VH: QLQLQESGPGLVKPSETLSLTCTVSGDSISSGGYYWGWIRQPPGKGLEWIGHIYYSGATYYNPSLKNRVTISVDTSKNQFSLKLSSVTAADTAVYYCTRDDSSNWRSRGQGTLVTVSS
notes: as for B1
B15: anti-CD22 heavy chain-only antibody Clone ID 335207 (antibody, V domains shown)
VH: QLQLQESGPGLVKPSETLSLTCTVSGDSISSGDYYWGWIRQPPGKGLEWIGHIYYSGVTYYNPSLKSRVTISVDTSRNQFSLKLSSVTAADTAVYYCTREDSSNWRSRGQGTLVTVSS
notes: as for B1
B16: anti-CD22 heavy chain-only antibody Clone ID 335161 (antibody, V domains shown)
VH: QLQLQESGPGLVKPSETLSLTCTVSGDSISSGDYYWGWIRQPPGKGLEWIGHIYYSGATYYNPSLENRVTISVDTSKNQFSLKLSSVTAADTAVYYCTRDDSSNWRSRGQGTLVTVSS
notes: as for B1
B17: anti-CD22 heavy chain-only antibody Clone ID 335187 (antibody, V domains shown)
VH: QLQLQESGPGLVKPSETLSLTCTVSGGSISSSSYYWGWIRQPPGKGLEWIGHIYYSGATYYNPSLKNRVTISVDTSKNQFSLKLSSVTAADTAVYYCTRDDSSNWRSRGQGTLVTVSS
notes: as for B1
B18: anti-CD22 heavy chain-only antibody Clone ID 335171 (antibody, V domains shown)
VH: QLQLQESGPGLVKPSETLSLTCTVSGGSISSSSYYWGWIRQPPGKGLEWIGSIYYSGATYYNPSLKNRVTISVDTSRNQFSLNLSSVTAADTAVYYCTRDDSSNWRSRGQGTLVTVSS
notes: as for B1
B19: anti-CD22 heavy chain-only antibody Clone ID 335182 (antibody, V domains shown)
VH: QLQLQESGPGLVKPSETLSLTCTVSGDSISSGDYYWGWIRQPPGKGLEWIGNIYYSGATYYNPSLKNRVTISVDTSKNQFSLKLSSVTAADTAVYYCTRDDSSNWRSRGQGTLVTVSS
notes: as for B1
B20: anti-CD22 heavy chain-only antibody Clone ID 335162 (antibody, V domains shown)
VH: QLQLQESGPGLVKPSETLSLTCTVSGGSIISSSYYWGWIRQPPGKGLEWIGSIYYSGSAYYHPSLKSRVTISIDTSKNQFSLKLSSVTAADTAVYYCARDDSSNWRSRGQGTLVTVSS
notes: as for B1
B21: anti-CD22 heavy chain-only antibody Clone ID 335210 (antibody, V domains shown)
VH: QLQLQESGPGLVKPSETLSLTCTVSGGSISSGDYYWGWIRQPPGKGLEWIGHIYYSGATYYNPSLKNRVTISVDTSRNQFSLKLSSVTAADTAVYYCTREDSSNWRSRGQGTLVTVSS
notes: as for B1
B22: anti-CD22 heavy chain-only antibody Clone ID 335218 (antibody, V domains shown)
VH: QLQLQESGPGLVKPSETLSLTCTVSGDSISSGDYYWGWIRQPPGKGLEWIGHIYYSGATYYNPSLKNRVTISVDTSRNQFSLKLSSVTAADTAVYYCTREDSSNWRSRGQGTLVTVSS
notes: as for B1
B23: anti-CD22 heavy chain-only antibody Clone ID 335154 (antibody, V domains shown)
VH: QLQLQESGPGLVKPSETLSLTCTVSGDSISSGDYYWGWIRQPPGKGLEWIGHIYYSGVTYYNPSLKNRVTISVDTSKNQFSLKLSSVTAADTAVYYCTRDDSSNWRSRGQGTLVTVSS
notes: as for B1
B24: anti-CD22 heavy chain-only antibody Clone ID 335189 (antibody, V domains shown)
VH: QLQLQESGPGLVKPSETLSLTCTVSGGSISSSSYYWGWIRQPPGKGLEWIGSVYYTGATYYNPSLKNRVTISVDTSKNQFSLKLSSVTAADTAVYYCTRDDSSNWRSRGQGTLVTVSS
notes: as for B1
B25: anti-CD22 heavy chain-only antibody Clone ID 335166 (antibody, V domains shown)
VH: QLQLQESGPGLVKPSETLSLTCTVSGGSISSSSYYWGWIRQPPGKGLEWIGSIYYSGSTYYNPSLKNRVTISVDTSRNQFSLNLSSVTAADTAVYYCTRDDSSNWRSRGQGTLVTVSS
notes: as for B1
B26: anti-CD22 heavy chain-only antibody Clone ID 335160 (antibody, V domains shown)
VH: QLQLQESGPGLVKPSETLSLTCTVSGDSISSGDYYWGWIRQPPGKGLEWIGSIYYSGATYYNPSLKNRVTISVDTSKNQFSLKLSSVTAADTAVYYCTRDDSSNWRSRGQGTLVTVSS
notes: as for B1
B27: anti-CD22 heavy chain-only antibody Clone ID 335195 (antibody, V domains shown)
VH: QLQLQESGPGLVKPSETLSLTCTVSGGSISSSSYYWGWIRQPPGKGLEWIGSIYYSGATYYNPSLKNRVTISVDTSRNQFSLNLSSVTAADTAMYYCTREDSSNWRSRGQGTLVTVSS
notes: as for B1
B28: anti-CD22 heavy chain-only antibody Clone ID 324508 (antibody, V domains shown)
VH: QLQLQESGPGLVKPSETLSLTCTVSGGSISSGDYYWGWIRQPPGKGLEWIGHIYYSGATYYNPSLENRVTISVDTSKNQFSLKLSSVTAADTAVYYCTRDDSSNWRSRGQGTLVTVSS
notes: as for B1
B29: anti-CD22 heavy chain-only antibody Clone ID 335201 (antibody, V domains shown)
VH: QLQLQESGPGLVKPSETLSLTCTVSGDSISSGDYYWGWIRQPPGKGLEWIGHIYYSGVTYYNPSLKNRVTISVDTSRNQFSLKLSSVTAADTAVYYCTREDSSNWRSRGQGTLVTVSS
notes: as for B1

The target in this experiment is T1, human CD22. In words: ELISA protein and cell-binding assays. For orientation: An ELISA detects its analyte on a solid surface through an enzyme-linked reagent.
In the case of B1, the binding result is “binds”. As for B2, the entry is “binds”. Consider B3, for which the binding result is on record as “binds”. As for B4, the entry is “binds”; as for B5, “binds”.

Turning to B6, the binding result is “binds”. As for B7, the entry is “binds”; as for B8, “binds”.

Consider B9, for which the binding result is “binds”. For the molecule B10, the binding result was “binds”.

With B11, the binding result is reported as “binds”. To B12 belongs “binds”; to B13, “binds”. With B14, the binding result is listed as “binds”. As for B15, the entry is “binds”; as for B16, “binds”. To B17 belongs “binds”. To B18 belongs “binds”; to B19, “binds”. For the molecule B20, the binding result was “binds”. As for B21, the entry is “binds”; as for B22, “binds”; as for B23, “binds”. As for B24, the entry is “binds”; as for B25, “binds”. To B26 belongs “binds”; to B27, “binds”. For B28, the binding result is listed as “binds”.

Turning to B29, the binding result was “binds”.
